From paper PMC11472163, “Crystal structure and nucleic acid binding mode of CPV NSP9: implications for viroplasm in Reovirales”

Legend:
[1] = target: BmCPV1 NSP9^ΔC (1–286 amino acid residues, lacking residues 287–320), expressed in E. coli (Bombyx mori cypovirus 1 (BmCPV1)); assay: AUC
[2] = target: BmCPV1 NSP9^ΔC (1–286 amino acid residues, lacking residues 287–320), expressed in E. coli (Bombyx mori cypovirus 1 (BmCPV1)); assay: SEC; […]; 10 mM HEPES pH 7.5, 100 mM NaCl; […]
NSP9ΔC [3] = target: T1, NSP9ΔC (Bombyx mori cypovirus 1 (BmCPV1), UniProt O72505 1-286); assay: EMSA; no significant difference from DNA; […]; SEC: 10 mM HEPES pH 7.5, 100 mM NaCl; conditions: protein: recombinant; chain copies: 2; label: 5' 6-FAM
NSP9ΔC [4] = target: T1, NSP9ΔC; assay: EMSA; two sequential bands; 2:1 dimer:NA; […]; SEC: 10 mM HEPES pH 7.5, 100 mM NaCl; conditions: protein: recombinant; chain copies: 2; label: 5' 6-FAM
NSP9ΔC [5] = target: T1, NSP9ΔC; assay: EMSA; 1:1 NSP9ΔC dimer:ssDNA; […]; SEC: 10 mM HEPES pH 7.5, 100 mM NaCl; conditions: protein: recombinant; chain copies: 2; label: 5' 6-FAM (EMSA)

Molecule: BmCPV1 NSP9^ΔC (1–286 amino acid residues, lacking residues 287–320), expressed in E. coli (domain or fragment)
- stoichiometry N [1]: 2
- stoichiometry N [2]: 2

Molecule: AGUAAGCUGUUAGCC (ssRNA) [15 nt ssRNA]
- binding result (NSP9ΔC [3]): binds

Molecule: AGTAAATCCCAGGCGCTCGGGTCGTTAGCC (ssDNA) [30 nt ssDNA]
- binding result (NSP9ΔC [4]): binds

Molecule: AGUAAAUCCCAGGCGCUCGGGUCGUUAGCC (ssRNA) [30 nt ssRNA]
- binding result (NSP9ΔC [4]): binds

Molecule: AGTAAGCTGTTAGCC (ssDNA) [15 nt ssDNA]
- binding result (NSP9ΔC [5]): binds
